Test results from publication PMC9512822, “Redβ177 annealase structure reveals details of oligomerization and λ Red-mediated homologous DNA recombination” (Nature Communications, 2022).

Assays:
Redβ177 = molecular target: T1, Redβ177 (Escherichia coli bacteriophage lambda, UniProt P03698 1-177); assay: cryo-EM structure (helical reconstruction, 3.3 Å); 5 mM MgCl2; Redβ177:Oligo 1:Oligo 2 7.7:1:1; 4 bp per monomer; base identity averaged, arbitrary sequence modelled; 20 mM KH2PO4 pH 6.0, 5 mM MgCl2; 30 min at room temperature with each oligo, then dialysis overnight at 4 °C; conditions: protein: recombinant; tags: C-terminal His6; blunt
T1 sequence: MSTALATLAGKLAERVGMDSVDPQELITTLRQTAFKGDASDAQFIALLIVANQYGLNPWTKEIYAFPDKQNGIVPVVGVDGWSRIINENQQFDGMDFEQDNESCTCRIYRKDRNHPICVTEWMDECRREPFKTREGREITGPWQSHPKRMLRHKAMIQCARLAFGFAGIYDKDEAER

[1] = molecular target: the molecule itself; assay: cryo-EM structure; purified Redβ177 incubated in turn with two complementary 27mer oligonucleotides (molar ratio 7.7:1:1) in 20 mM KH2PO4 pH 6.0, 5 mM MgCl2, room temperature, then dialysed overnight at 4 °C; helical reconstruction of the 1-start left-handed helix, 3.3 Å; a 2-start assembly was seen only in 2D classes

B1: Oligo 1 + Oligo 2 annealing intermediate (27mer) (dsDNA)
DNA 1: TGCAGCAGCTTTACCATCTGCCGCTGG
DNA 2: CCAGCGGCAGATGGTAAAGCTGCTGCA
Does B1 bind (Redβ177)?
Result: binds

B2: Redβ177-His6 (N-terminal residues 1-177 of the Redβ annealase of bacteriophage λ) (domain or fragment, bacteriophage lambda (phage λ), UniProt P03698 1-177, looked up)
chain: T1 sequence
notes: Redβ (Beta) annealase, product of the bet gene of bacteriophage lambda, UniProtKB P03698, N-terminal residues 1-177 (C-terminally truncated); The molecule forms a helical filament of no fixed number of subunits; Residues 3-169 were modelled, except 133-138; also called Redβ177-6xHis; Redβ N-terminal domain; not shown: His6, C-terminal, kept
Does B2 bind [1]?
Result: binds
